In US20250277023A1 (published 2025) one finds EC50 data, which are given here for six molecules.

Assay [1] addresses T1, TIGIT (on CHO-TIGIT cells) (UniProt Q495A1 22-244).
T1 chain: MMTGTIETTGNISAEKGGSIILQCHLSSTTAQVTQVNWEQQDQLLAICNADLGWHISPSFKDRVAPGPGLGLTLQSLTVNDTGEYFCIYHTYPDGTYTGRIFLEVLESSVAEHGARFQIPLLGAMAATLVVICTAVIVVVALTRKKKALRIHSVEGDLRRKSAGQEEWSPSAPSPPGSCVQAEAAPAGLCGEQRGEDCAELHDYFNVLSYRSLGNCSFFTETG
Nature of the assay: FACS binding; Fig. 17.

Assay [2] deals with T2, PD-L1 (on CHO-PD-L1 cells) (UniProt Q9NZQ7 19-290). Nature of the assay: FACS binding; Fig. 22. (Flow cytometry measures light scatter and fluorescence of single cells or particles in a stream.)
T2 sequence (Q9NZQ7 19-290): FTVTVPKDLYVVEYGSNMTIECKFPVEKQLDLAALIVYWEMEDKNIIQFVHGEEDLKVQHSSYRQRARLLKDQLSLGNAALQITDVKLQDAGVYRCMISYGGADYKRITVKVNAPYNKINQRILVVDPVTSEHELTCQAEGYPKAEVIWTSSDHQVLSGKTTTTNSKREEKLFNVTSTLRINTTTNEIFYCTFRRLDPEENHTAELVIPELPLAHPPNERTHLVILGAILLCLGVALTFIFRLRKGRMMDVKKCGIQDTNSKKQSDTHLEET
Another assay concerns the target IL15R. Nature of the assay: FACS binding; Fig. 29.
Assay [3] concerns the target T2, PD-L1 (on CHO-PD-L1 cells). Nature of the assay: FACS binding; Fig. 21.

As usually defined, the EC50 is the midpoint of the concentration-response curve. A lower EC50 goes with greater potency.

B1: R0774 (Tigit monoclonal antibody) (antibody, V domains shown)
VH: QVQLVQSGAEVKKPGSSVKVSCKASGYSFTSYWMNWVRQAPGQGLEWIGMIRPSDSETRLNQMFKDRVTITVDKSTSTAYMELSSLRSEDTAVYYCAGIHDYGHGAYWGQGTLVTVSS
VL: DIQMTQSPSSLSASVGDRVTITCRASENIYSNLAWYQQKPGKSPKLLVYAASHLPDGVPSRFSGSGSGTDYSLTISSLQPEDFATYYCQHFWGTPRTFGQGTKLEIK
B1 yielded an EC50 in assay [1] of 678 pM.

B2: R1123: TIGIT_VH_IL21R/TIGIT_VL_IL21/PD-L1-Fab (bispecific antibody)
chain 1: not shown
chain 2: not shown
heavy: EVQLQESGPGLVKPSETLSLTCAVYGDSITSGYWNWIRKPPGKGLEYMGYISYTGSTYQNPSLKSRITFSRDTSKNQYYLKLSSVTAADTATYYCARSRAWIRTYFDYWGQGTLVTVSSASTKGPSVFPLAPSSKSTSGGTAALGCLVKDYFPEPVTVSWNSGALTSGVHTFPAVLQSSGLYSLSSVVTVPSSSLGTQTYICNVNHKPSNTKVDKRVEPKSCDKTHTCPPCPAPELLGGPSVFLFPPKPKDTLMISRTPEVTCVVVDVSHEDPEVKFNWYVDGVEVHNAKTKPREEQYNSTYRVVSVLTVLHQDWLNGKEYKCKVSNKALPAPIEKTISKAKGQPREPQVYTLPPSREEMTKNQVSLWCLVKGFYPSDIAVEWESNGQPENNYDTTPPVLDSDGSFFLYSDLTVDKSRWQQGNVFSCSVMHEALHNHYTQKSLSLSPGK
light: EIVLTQSPDFQSVTPKEKVTITCSVSSSISSSNLHWYQQKPDQSPKLLIYGTSNLASGVPSRFSGSGSGTDFTLTINSLEAEDAATYYCQQWSSYPLTFGQGTKLEIKRTVAAPSVFIFPPSDEQLKSGTASVVCLLNNFYPREAKVQWKVDNALQSGNSQESVTEQDSKDSTYSLSSTLTLSKADYEKHKVYACEVTHQGLSSPVTKSFNRGEC
For B2, the values for the EC50 in assay [2] and in assay [1] were 5220 pM and 2890 pM, respectively.

B3: R1042 (bispecific antibody)
chain 1: EVQLLESGGGLVQPGGSLRLSCAASGFTFSSYIMMWVRQAPGKGLEWVSSIYPSGGITFYADTVKGRFTISRDNSKNTLYLQMNSLRAEDTAVYYCARIKLGTVTTVDYWGQGTLVTVSSGGGGSGGGGSGGGGSGGGGSGITCPPPMSVEHADIWVKSYSLYSRERYICNSGFKRKAGTSSLTECVLNKATNVAHWTTPSLKCIRDPALVHQRPAPPSTVTTAGVTPQPESLSPSGKEPAASSPSSNNTAATTAAIVPGSQLMPSKSPSTGTTEISSHESSHGTPSQTTAKNWELTASASHQPPGVYPQGHSDTTEPRGPTIKPCPPCKCPAPNLLGGPSVFIFPPKIKDVLMISLSPIVTCVVVDVSEDDPDVQISWFVNNVEVHTAQTQTHREDYNSTLRVVSALPIQHQDWMSGKEFKCKVNNKDLPAPIERTISKPKGSVRAPQVYVLPPPEEEMTKKQVTLWCMVTDFMPEDIYVEWTNNGKTELNYDNTEPVLDSDGSYFMYSDLRVEKKNWVERNSYSCSVVHEGLHNHHTTKSFSRTPGK
chain 2: not shown
heavy: QVQLESEGGLFKPTDTLTLTCTVSGSSLSSSYMSWVRQAPGKGLEWIGIIGSNGNTYYANWAKGRFTISKTSTTVELKITSPTTEDTATYFCARGGYRTSGMDPWGPGTLVTVSSAKTTAPSVYPLAPVCGDTTGSSVTLGCLVKGYFPEPVTLTWNSGSLSSGVHTFPAVLQSDLYTLSSSVTVTSSTWPSQSITCNVAHPASSTKVDKKIEPRGPTIKPCPPCKCPAPNLLGGPSVFIFPPKIKDVLMISLSPIVTCVVVDVSEDDPDVQISWFVNNVEVHTAQTQTHREDYNSTLRVVSALPIQHQDWMSGKEFKCKVNNKDLPAPIERTISKPKGSVRAPQVYVLPPPEEEMTKKQVTLTCRVTDFMPEDIYVEWTNNGKTELNYKNTEPVLKSDGSYFMASKLRVEKKNWVERNSYSCSVVHEGLHNHHTTKSFSRTPGK
light: QSALTQPASVSGSPGQSITISCTGTSSDVGGYNYVSWYQQHPGKAPKLMIYDVSNRPSGVSNRFSGSKSGNTASLTISGLQAEDEADYYCSSYTSSSTRVFGTGTKVTVLRTDAAPTVSIFPPSSEQLTSGGASVVCFLNNFYPKDINVKWKIDGSERQNGVLNSWTDQDSKDSTYSMSSTLTLTKDEYERHNSYTCEATHKTSTSPIVKSFNRNEC
The molecule B3 came in with an EC50 in the assay with IL15R of 862 pM.

B4: R1043 (bispecific antibody)
chain 1: QVQLESEGGLFKPTDTLTLTCTVSGSSLSSSYMSWVRQAPGKGLEWIGIIGSNGNTYYANWAKGRFTISKTSTTVELKITSPTTEDTATYFCARGGYRTSGMDPWGPGTLVTVSSGGGGSGGGGSGGGGSGGGGSGITCPPPMSVEHADIWVKSYSLYSRERYICNSGFKRKAGTSSLTECVLNKATNVAHWTTPSLKCIRDPALVHQRPAPPSTVTTAGVTPQPESLSPSGKEPAASSPSSNNTAATTAAIVPGSQLMPSKSPSTGTTEISSHESSHGTPSQTTAKNWELTASASHQPPGVYPQGHSDTTEPRGPTIKPCPPCKCPAPNLLGGPSVFIFPPKIKDVLMISLSPIVTCVVVDVSEDDPDVQISWFVNNVEVHTAQTQTHREDYNSTLRVVSALPIQHQDWMSGKEFKCKVNNKDLPAPIERTISKPKGSVRAPQVYVLPPPEEEMTKKQVTLWCMVTDFMPEDIYVEWTNNGKTELNYDNTEPVLDSDGSYFMYSDLRVEKKNWVERNSYSCSVVHEGLHNHHTTKSFSRTPGK
chain 2: not shown
heavy: EVQLLESGGGLVQPGGSLRLSCAASGFTFSSYIMMWVRQAPGKGLEWVSSIYPSGGITFYADTVKGRFTISRDNSKNTLYLQMNSLRAEDTAVYYCARIKLGTVTTVDYWGQGTLVTVSSAKTTAPSVYPLAPVCGDTTGSSVTLGCLVKGYFPEPVTLTWNSGSLSSGVHTFPAVLQSDLYTLSSSVTVTSSTWPSQSITCNVAHPASSTKVDKKIEPRGPTIKPCPPCKCPAPNLLGGPSVFIFPPKIKDVLMISLSPIVTCVVVDVSEDDPDVQISWFVNNVEVHTAQTQTHREDYNSTLRVVSALPIQHQDWMSGKEFKCKVNNKDLPAPIERTISKPKGSVRAPQVYVLPPPEEEMTKKQVTLTCRVTDFMPEDIYVEWTNNGKTELNYKNTEPVLKSDGSYFMASKLRVEKKNWVERNSYSCSVVHEGLHNHHTTKSFSRTPGK
light: DIVMTQTPASVEVAVGGTVTIKCQASQSISSYLNWYQQKPGQPPKLLIYDALKLASGVPSRFSGSGSGTEYTLTISGVESADAATYYCQQEHSVGNVDNVFGGGTEVVVKRTDAAPTVSIFPPSSEQLTSGGASVVCFLNNFYPKDINVKWKIDGSERQNGVLNSWTDQDSKDSTYSMSSTLTLTKDEYERHNSYTCEATHKTSTSPIVKSFNRNEC
The molecule B4 returned an EC50 with IL15R of 1070 pM.

B5: R0951: TIGIT_VH_IL15RA/TIGIT_VL_IL15/PD-L1-Fab (bispecific antibody)
chain 1: QVQLESEGGLFKPTDTLTLTCTVSGSSLSSSYMSWVRQAPGKGLEWIGIIGSNGNTYYANWAKGRFTISKTSTTVELKITSPTTEDTATYFCARGGYRTSGMDPWGPGTLVTVSSGGGGSGGGGSGGGGSGGGGSGITCPPPMSVEHADIWVKSYSLYSRERYICNSGFKRKAGTSSLTECVLNKATNVAHWTTPSLKCIRDPALVHQRPAPPSTVTTAGVTPQPESLSPSGKEPAASSPSSNNTAATTAAIVPGSQLMPSKSPSTGTTEISSHESSHGTPSQTTAKNWELTASASHQPPGVYPQGHSDTTEPRGPTIKPCPPCKCPAPNLLGGPSVFIFPPKIKDVLMISLSPIVTCVVVDVSEDDPDVQISWFVNNVEVHTAQTQTHREDYNSTLRVVSALPIQHQDWMSGKEFKCKVNNKDLPAPIERTISKPKGSVRAPQVYVLPPPEEEMTKKQVTLWCMVTDFMPEDIYVEWTNNGKTELNYDNTEPVLDSDGSYFMYSDLRVEKKNWVERNSYSCSVVHEGLHNHHTTKSFSRTPGK
chain 2: not shown
heavy: EVQLLESGGGLVQPGGSLRLSCAASGFTFSSYIMMWVRQAPGKGLEWVSSIYPSGGITFYADTVKGRFTISRDNSKNTLYLQMNSLRAEDTAVYYCARIKLGTVTTVDYWGQGTLVTVSSAKTTAPSVYPLAPVCGDTTGSSVTLGCLVKGYFPEPVTLTWNSGSLSSGVHTFPAVLQSDLYTLSSSVTVTSSTWPSQSITCNVAHPASSTKVDKKIEPRGPTIKPCPPCKCPAPNLLGGPSVFIFPPKIKDVLMISLSPIVTCVVVDVSEDDPDVQISWFVNNVEVHTAQTQTHREDYNSTLRVVSALPIQHQDWMSGKEFKCKVNNKDLPAPIERTISKPKGSVRAPQVYVLPPPEEEMTKKQVTLTCRVTDFMPEDIYVEWTNNGKTELNYKNTEPVLKSDGSYFMASKLRVEKKNWVERNSYSCSVVHEGLHNHHTTKSFSRTPGK
light: QSALTQPASVSGSPGQSITISCTGTSSDVGGYNYVSWYQQHPGKAPKLMIYDVSNRPSGVSNRFSGSKSGNTASLTISGLQAEDEADYYCSSYTSSSTRVFGTGTKVTVLRTDAAPTVSIFPPSSEQLTSGGASVVCFLNNFYPKDINVKWKIDGSERQNGVLNSWTDQDSKDSTYSMSSTLTLTKDEYERHNSYTCEATHKTSTSPIVKSFNRNEC
As to B5, the EC50 in assay [3] came out at 460 pM.

B6: R0952: TIGIT_VH_IL15/TIGIT_VL_IL15RA/PD-L1-Fab (bispecific antibody)
chain 1: not shown
chain 2: DIVMTQTPASVEVAVGGTVTIKCQASQSISSYLNWYQQKPGQPPKLLIYDALKLASGVPSRFSGSGSGTEYTLTISGVESADAATYYCQQEHSVGNVDNVFGGGTEVVVKGGGGSGGGGSGGGGSGGGGSGITCPPPMSVEHADIWVKSYSLYSRERYICNSGFKRKAGTSSLTECVLNKATNVAHWTTPSLKCIRDPALVHQRPAPPSTVTTAGVTPQPESLSPSGKEPAASSPSSNNTAATTAAIVPGSQLMPSKSPSTGTTEISSHESSHGTPSQTTAKNWELTASASHQPPGVYPQGHSDTT
heavy: EVQLLESGGGLVQPGGSLRLSCAASGFTFSSYIMMWVRQAPGKGLEWVSSIYPSGGITFYADTVKGRFTISRDNSKNTLYLQMNSLRAEDTAVYYCARIKLGTVTTVDYWGQGTLVTVSSAKTTAPSVYPLAPVCGDTTGSSVTLGCLVKGYFPEPVTLTWNSGSLSSGVHTFPAVLQSDLYTLSSSVTVTSSTWPSQSITCNVAHPASSTKVDKKIEPRGPTIKPCPPCKCPAPNLLGGPSVFIFPPKIKDVLMISLSPIVTCVVVDVSEDDPDVQISWFVNNVEVHTAQTQTHREDYNSTLRVVSALPIQHQDWMSGKEFKCKVNNKDLPAPIERTISKPKGSVRAPQVYVLPPPEEEMTKKQVTLTCRVTDFMPEDIYVEWTNNGKTELNYKNTEPVLKSDGSYFMASKLRVEKKNWVERNSYSCSVVHEGLHNHHTTKSFSRTPGK
light: QSALTQPASVSGSPGQSITISCTGTSSDVGGYNYVSWYQQHPGKAPKLMIYDVSNRPSGVSNRFSGSKSGNTASLTISGLQAEDEADYYCSSYTSSSTRVFGTGTKVTVLRTDAAPTVSIFPPSSEQLTSGGASVVCFLNNFYPKDINVKWKIDGSERQNGVLNSWTDQDSKDSTYSMSSTLTLTKDEYERHNSYTCEATHKTSTSPIVKSFNRNEC
As to B6, a half-maximal effect in assay [3] (EC50) was put at 430 pM. The EC50 values of the last two molecules are within 1.5-fold of each other.
